Article PMC12557600

How the values were obtained:
Experiment in all cases: EMSA
Conditions in all cases: N16 of strand 1 = tetrahydrofuran (THF) abasic site analog; EMSA: 50 mM Tris pH 8.0, 1 mM EDTA, 0.2 mg/ml BSA, 50 mg/ml sucrose, 0.5 mg/ml bromophenol blue, 1 mM DTT; 2 nM DNA, at least 20 min; 10% 59:1 native gel …
[1] = target: APE1 N174A N174A (Homo sapiens) (UniProt P27695)
[2] = target: APE1 N174D N174D (Homo sapiens) (UniProt P27695)
APE1 WT (Homo sapiens) = APE1 WT (Homo sapiens) (UniProt P27695)
APE1 WT (Homo sapiens), sequence (P27695 whole entry): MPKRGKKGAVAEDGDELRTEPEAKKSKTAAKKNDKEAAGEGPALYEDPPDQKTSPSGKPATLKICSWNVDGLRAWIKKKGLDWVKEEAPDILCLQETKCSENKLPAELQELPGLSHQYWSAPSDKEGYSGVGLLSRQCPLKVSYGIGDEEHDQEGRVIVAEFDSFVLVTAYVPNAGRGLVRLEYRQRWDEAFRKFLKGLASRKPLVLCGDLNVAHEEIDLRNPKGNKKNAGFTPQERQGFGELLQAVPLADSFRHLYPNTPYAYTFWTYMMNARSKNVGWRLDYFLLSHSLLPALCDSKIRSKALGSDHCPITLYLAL

[3] = target: APE1 N174K N174K (Homo sapiens) (UniProt P27695)
APE1 N174K N174K (Homo sapiens), sequence (P27695 whole entry N174K): as the sequence (P27695 whole entry) above, with N174K counted along it

APE1 N174D N174D (Homo sapiens), sequence (P27695 whole entry N174D): as the sequence (P27695 whole entry) above, with N174D counted along it
APE1 N174A N174A (Homo sapiens), sequence (P27695 whole entry N174A): as the sequence (P27695 whole entry) above, with N174A counted along it

In the case of “CGTTCGCTGATGCGCNCGACGGATCCGCAT / ATGCGGATCCGTCGAGCGCATCAGCGAACG [30-bp THF AP-DNA]”, the Kd [1] is reported as 44 nM, the Kd [2] is reported as 13 nM and the Kd (APE1 WT (Homo sapiens)) is reported as 0.9 nM. It also gave a Kd [3] of 17 nM.
